Data on 1 substance can be found in PMC2193676.

For this experiment, the target named is biotinylated K^d-SYIPSAEK(ABA)I (H-2K^d heavy chain, human β2-microglobulin, photoreactive PbCS(ABA) peptide) (not stated | human | Plasmodium berghei). As to the kind of experiment: SPR.

The term Kd denotes the equilibrium constant for the complex coming apart. High values mean weaker binding, low ones tighter binding. The substance “soluble CD8αβ (extracellular portions of murine CD8α and CD8β fused to leucine zipper units) (complex)” gave a Kd of 99 µM.
